Data on four molecules can be found in patent US20240425603A1 (Janssen / Centocor, published 2024).

Assay [1] deals with T1, human VEGFR1, full length, over-expressed on cells (human, UniProt P17948 27-1338).
T1 construct: on CHO-K1 or HEK cells; also called hVEGFR1; CHOK1/ human VEGFR1
As to the kind of experiment: flow cytometry, CHO-K1 cells stably expressing human VEGFR1. As for the experimental part:
Full dose-response curves for binding of anti-VEGFR1 antibodies to VEGFR1 on cells were also generated. Parental CHO-K1 cells and CHO-K1 cells stably expressing human VEGFR1 (CHO-K1\hVEGFR1) were cultured in aMEM+10% FBS and aMEM+10% FBS containing 10 μg/mL Puromycin, respectively. CHOK1\hVEGFR1 were stained with CSFE as described above and parental CHO-K1 cells were left unstained. Cells were washed, combined (˜0.5×10⁶ cells/mL), and plated at ˜40,000 cells per well (75 μL/well). Serially diluted antibody samples were then added to the cells and incubated for 1 hour at 37° C. Cells were washed twice with stain buffer and then stained with AF647-conjugated secondary antibody for 30 min at 4° C. Plated cells were washed twice followed by the addition of read buffer containing Sytox Blue (1:1000) and read on an iQue flow cytometer. Data was fit to obtain EC₅₀ values (Table 22).
(In general: A flow cytometer gives signals particle by particle.)

The target of assay [2] is T2, cynomolgus monkey VEGFR1, over-expressed on HEK293 cells (cynomolgus monkey).
T2 construct: whole, on cells; also called HEK/ cyno VEGFR1; cynoVEGFR1
Description: flow cytometry, 10 nM antibody, HEK cells over-expressing cyno VEGFR1. The method, then:
Parental CHO-K1 cells, CHO-K1 cells stably expressing human VEGFR1, Ba/F3 parental, and Ba/F3 cells stably expressing murine VEGFR1 were stained for 10 minutes at 4° C. with either no stain, CSFE, CTV, or CTV+CSFE, respectively. Cells were subsequently washed with media containing heat inactivated FBS, collected by centrifugation, combined, resuspended in stain buffer, and plated (95 μL/well; 200,000 of each cell type per well). Antibody samples were added ([…]) to a final concentration of 10 nM and incubated for 60 min at 4° C. protected from light. Cells were washed twice with 150 μL/well stain buffer. AlexaFluor647-conjugated anti-human IgG1 secondary antibody was added (100 μL/well) and incubated for 30 minutes at 4° C. protected from light. Cells were washed twice with 150 μL of stain buffer, ultimately resuspended in 30 μL of running buffer and read on an iQue flow cytometer. This single concentration assay was used as a quick confirmation of binding to human and mouse VEGFR1 on cells. A similar assay was performed to confirm binding of candidate antibodies to HEK293 cells stably over-expressing cyno VEGFR1 at a single concentration of 10 nM.

Assay [3] deals with T3, human VEGFR3, over-expressed on K562 cells (human, UniProt P35916 25-1363).
T3 construct: whole, on cells; also called huVEGFR3; hVEGFR3
As to the kind of experiment: flow cytometry, 10 nM antibody, K562 cells over-expressing human VEGFR3.

The target in assay [4] is T4, Recombinant human VEGFR1-Fc (R&D Systems) (human, UniProt P17948 27-687, limits assumed).
T4 construct: bought; not shown: Fc part of the bought fusion, not described
As to the kind of experiment: MSD ECL competition on plate-bound human VEGFR1-Fc; competitor biotin PlGF (2 nM). The gist of the method:
(§1)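 Human or mouse VEGFR1-Fc, or His-tagged cyno VEGFR1 (0.5 ug/ml), was captured for 1 hour at room temperature on MSD 384 plates coated with Protein A/G or anti-His mAb and blocked with Blocker A. Half-log antibody dilutions were pre-incubated for 30 minutes, then biotinylated VEGFA (0.2 nM) or PlGF (2 nM) was added. Bound ligand was detected with Sulfo-tagged streptavidin on an MSD SECTOR S 600 imager. IC50 and maximal percent inhibition were calculated from the electro-chemiluminescence readings.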

Assay [5] has as its target T4, Recombinant human VEGFR1-Fc (R&D …). Description: MSD ECL competition on plate-bound human VEGFR1-Fc; competitor biotin human VEGFA165 (0.2 nM). The gist of the method: as §1
The target in assay [6] is T2, cynomolgus monkey VEGFR1, …. Description: flow cytometry, HEK cells over-expressing cyno VEGFR1; competitor biotinylated VEGF A (500 pM).
Assay [7] deals with T1, human VEGFR1, full length, …. As to the kind of experiment: flow cytometry, CHOK1 cells over-expressing human VEGFR1; competitor biotinylated VEGF A (500 pM). As for the experimental part: Ligand blocking on cells was determined as follows: Cell Trace Violet CSFE (ThermoFisher Scientific) stained cells were plated at 15,000 cells per well (30 μL/well; CHO parental or CHO cells engineered to over-express human VEGFR1) in FACS staining buffer. An equivalent volume of serially diluted test antibody was applied to the cells and incubated for one hour at 4° C. Cells were washed twice with 200 μL/well of stain buffer followed by the addition of 100 μL/well of biotinylated VEGF A ligand (500 pM). The cells were incubated at 4° C. for another hour followed by the addition of 50 µL/well of AF647-conjugated streptavidin (3 nM). The plate was incubated at 4° C. for 30 min protected from light, washed twice with 200 μL/well of stain buffer, collected by centrifugation, resuspended in running buffer containing Sytox Blue live/dead stain and then read on an Intellicyt iQue Plus flow cytometer. Data was fit to obtain IC₅₀ values. Percent ligand blocking was calculated for each concentration of each test antibody and IC50 values were determined (Table 25).

A word on the EC50: it is the concentration giving half of the maximal effect. As a reminder, the IC50 is the concentration at which inhibition is half-maximal.

T4 sequence (P17948 27-687 limits assumed): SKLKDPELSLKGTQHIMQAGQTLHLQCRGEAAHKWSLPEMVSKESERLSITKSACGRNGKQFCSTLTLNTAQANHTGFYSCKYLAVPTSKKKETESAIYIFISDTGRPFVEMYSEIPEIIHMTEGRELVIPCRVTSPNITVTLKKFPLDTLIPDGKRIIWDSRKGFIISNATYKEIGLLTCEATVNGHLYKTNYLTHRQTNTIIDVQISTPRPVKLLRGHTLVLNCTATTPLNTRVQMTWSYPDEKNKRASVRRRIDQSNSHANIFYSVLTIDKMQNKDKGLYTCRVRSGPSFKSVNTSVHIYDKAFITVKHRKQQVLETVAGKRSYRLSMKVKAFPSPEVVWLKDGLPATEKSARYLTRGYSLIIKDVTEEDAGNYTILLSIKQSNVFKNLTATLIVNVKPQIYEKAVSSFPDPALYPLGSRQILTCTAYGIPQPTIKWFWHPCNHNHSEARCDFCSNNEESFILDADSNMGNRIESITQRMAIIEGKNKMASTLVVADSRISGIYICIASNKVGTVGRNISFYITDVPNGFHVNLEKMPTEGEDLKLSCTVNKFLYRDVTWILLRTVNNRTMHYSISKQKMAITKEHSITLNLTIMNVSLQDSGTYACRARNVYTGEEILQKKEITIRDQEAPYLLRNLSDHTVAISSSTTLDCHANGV
T3 sequence (P35916 25-1363): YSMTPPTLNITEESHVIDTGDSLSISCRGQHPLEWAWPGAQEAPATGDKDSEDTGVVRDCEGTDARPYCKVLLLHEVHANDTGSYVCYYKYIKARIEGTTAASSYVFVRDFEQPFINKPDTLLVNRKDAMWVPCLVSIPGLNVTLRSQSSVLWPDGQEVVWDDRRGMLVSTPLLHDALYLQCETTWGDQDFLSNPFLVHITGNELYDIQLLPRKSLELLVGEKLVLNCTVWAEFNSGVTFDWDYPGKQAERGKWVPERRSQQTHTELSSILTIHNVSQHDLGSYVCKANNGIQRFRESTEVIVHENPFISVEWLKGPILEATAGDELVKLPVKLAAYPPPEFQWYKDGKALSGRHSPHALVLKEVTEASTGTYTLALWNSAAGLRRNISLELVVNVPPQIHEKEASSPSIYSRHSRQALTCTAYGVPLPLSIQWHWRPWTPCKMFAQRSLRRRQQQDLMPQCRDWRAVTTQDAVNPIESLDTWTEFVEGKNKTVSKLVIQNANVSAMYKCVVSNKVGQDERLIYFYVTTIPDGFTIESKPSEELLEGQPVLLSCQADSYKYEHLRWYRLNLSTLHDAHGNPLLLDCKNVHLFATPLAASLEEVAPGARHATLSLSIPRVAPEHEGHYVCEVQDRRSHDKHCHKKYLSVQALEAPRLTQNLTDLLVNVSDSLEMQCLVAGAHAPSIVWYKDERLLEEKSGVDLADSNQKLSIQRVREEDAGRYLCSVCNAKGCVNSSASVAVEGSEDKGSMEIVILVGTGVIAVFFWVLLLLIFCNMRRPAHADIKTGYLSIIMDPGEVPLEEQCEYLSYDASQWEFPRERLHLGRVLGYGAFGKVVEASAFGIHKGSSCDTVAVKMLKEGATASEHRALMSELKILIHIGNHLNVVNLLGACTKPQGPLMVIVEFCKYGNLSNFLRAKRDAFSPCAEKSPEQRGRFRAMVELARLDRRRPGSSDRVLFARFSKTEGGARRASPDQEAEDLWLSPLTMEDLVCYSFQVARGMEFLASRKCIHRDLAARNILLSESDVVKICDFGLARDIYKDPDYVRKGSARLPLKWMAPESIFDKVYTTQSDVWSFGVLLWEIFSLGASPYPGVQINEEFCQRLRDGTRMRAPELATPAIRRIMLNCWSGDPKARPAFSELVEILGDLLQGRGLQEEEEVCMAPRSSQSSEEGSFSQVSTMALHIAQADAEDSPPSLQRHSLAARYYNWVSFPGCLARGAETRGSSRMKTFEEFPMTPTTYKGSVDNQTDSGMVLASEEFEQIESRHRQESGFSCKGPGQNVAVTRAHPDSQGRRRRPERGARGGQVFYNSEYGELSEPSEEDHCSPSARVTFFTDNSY
T1 sequence (P17948 27-1338 limits assumed): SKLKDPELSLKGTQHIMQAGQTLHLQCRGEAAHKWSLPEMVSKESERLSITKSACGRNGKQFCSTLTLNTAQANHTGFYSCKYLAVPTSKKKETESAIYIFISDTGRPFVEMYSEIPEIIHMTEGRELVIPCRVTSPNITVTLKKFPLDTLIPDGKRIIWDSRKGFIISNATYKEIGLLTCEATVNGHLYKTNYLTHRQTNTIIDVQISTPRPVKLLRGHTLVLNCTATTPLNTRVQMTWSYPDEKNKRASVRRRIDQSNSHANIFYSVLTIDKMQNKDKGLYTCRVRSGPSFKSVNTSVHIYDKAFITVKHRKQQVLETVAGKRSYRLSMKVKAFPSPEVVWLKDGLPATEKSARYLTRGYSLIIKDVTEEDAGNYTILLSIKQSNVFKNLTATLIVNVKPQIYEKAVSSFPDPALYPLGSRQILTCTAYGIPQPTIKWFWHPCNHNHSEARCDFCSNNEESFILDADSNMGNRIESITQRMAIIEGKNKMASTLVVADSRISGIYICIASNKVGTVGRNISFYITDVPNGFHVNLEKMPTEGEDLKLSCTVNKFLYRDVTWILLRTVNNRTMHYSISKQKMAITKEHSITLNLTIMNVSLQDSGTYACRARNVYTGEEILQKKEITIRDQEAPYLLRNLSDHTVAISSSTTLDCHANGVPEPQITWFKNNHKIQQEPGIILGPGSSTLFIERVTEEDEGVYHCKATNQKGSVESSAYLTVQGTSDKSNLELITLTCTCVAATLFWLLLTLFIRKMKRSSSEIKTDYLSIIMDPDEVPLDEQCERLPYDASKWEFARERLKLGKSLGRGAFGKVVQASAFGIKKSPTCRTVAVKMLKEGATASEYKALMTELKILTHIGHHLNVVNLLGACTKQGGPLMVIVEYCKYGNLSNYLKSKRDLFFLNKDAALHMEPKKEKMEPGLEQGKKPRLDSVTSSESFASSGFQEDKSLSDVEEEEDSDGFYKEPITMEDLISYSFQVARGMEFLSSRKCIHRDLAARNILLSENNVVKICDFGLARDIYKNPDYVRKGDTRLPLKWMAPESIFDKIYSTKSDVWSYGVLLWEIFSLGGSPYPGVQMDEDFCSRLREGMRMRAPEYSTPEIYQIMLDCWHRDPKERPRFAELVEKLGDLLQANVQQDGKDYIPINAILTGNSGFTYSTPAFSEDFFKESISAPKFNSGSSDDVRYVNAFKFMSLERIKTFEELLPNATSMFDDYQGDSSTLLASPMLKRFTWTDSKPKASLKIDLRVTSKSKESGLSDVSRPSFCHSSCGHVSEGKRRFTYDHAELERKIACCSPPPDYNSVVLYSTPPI

B1: VGFB82 (antibody, human IgG1, lambda, L234A L235A, V domains shown)
VH: EVQLLESGGGLVQPGGSLRLSCEASGFDFSTYAMNWVRQAPGKGLEWVATINSEGTITSHAPAVKGRFTISRDNSKNTAYVQMNSLRAEDSAVYYCSSTTGTTHGMDVWGRGTTVTVSS
VL: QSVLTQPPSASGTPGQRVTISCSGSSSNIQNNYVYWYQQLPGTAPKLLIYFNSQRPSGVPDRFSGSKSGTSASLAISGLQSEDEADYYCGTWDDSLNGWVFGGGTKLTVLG
notes: human IgG1 (L234A/L235A/D265S)
Regarding B1, the EC50 in assay [1] came to 0.136 nM. The results for the “Geomean over-expressing/Geomean parental (Fold Signal/Background)” value in assay [2] and in assay [3] were 3.3 fold and 1.01 fold, respectively. For the same molecule, the IC50 in assay [4] is 0.183 nM; in assay [5] it was 0.152 nM; in assay [6], 0.231 nM; in assay [7], 0.198 nM. Besides, the “Max % Inh.” value in assay [4] was 100%; in assay [5], 99.9%.

B2: VGFB78 (antibody, human IgG1, lambda, L234A L235A, V domains shown)
VH: EVQLLESGGGLVQPGGSLRLSCAASSFTFYNYDMTWVRQAPGKGLEWVAGIGTSGTDMYYADSVKGRFTISRDNSKNTLYLQMNSLRAEDTAIYYCAKDYYYYGMDVWGLGTTVTVSS
VL: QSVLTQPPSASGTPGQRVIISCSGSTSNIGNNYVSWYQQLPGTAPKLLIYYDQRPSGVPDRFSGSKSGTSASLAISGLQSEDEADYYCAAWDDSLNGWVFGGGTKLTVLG
notes: as for B1
For the molecule B2, the EC50 in assay [1] is 0.473 nM. Besides, the “Geomean over-expressing/Geomean parental (Fold Signal/Background)” value in assay [2] amounted to 4.46 fold; in assay [3], 0.99 fold. The IC50 in assay [4] is 0.335 nM; in assay [5], 0.252 nM; in assay [6], 0.815 nM; in assay [7], 0.683 nM. For the same molecule, the “Max % Inh.” value in assay [4] came to 100%; in assay [5], 99.9%.

B3: VGFB71 (antibody, human IgG1, lambda, L234A L235A, V domains shown)
VH: EVQLLESGGGLVQPGGSLRLSCEASGFIFRDYNMNWVRQAPGKGLEWVSIITNDGSSTAYSDSVKGRFTISRDNSKNSLYLQMNSLRAEDTAIYYCVKVYYGMDDWGQGTTVTVSS
VL: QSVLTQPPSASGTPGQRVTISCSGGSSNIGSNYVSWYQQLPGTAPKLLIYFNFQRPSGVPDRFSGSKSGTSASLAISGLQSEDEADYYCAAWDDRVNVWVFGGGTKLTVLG
notes: as for B1
B3 registered an EC50 in assay [1] of 0.11 nM. For the same molecule, the “Geomean over-expressing/Geomean parental (Fold Signal/Background)” value came to 3.8 fold in assay [2] and 0.98 fold in assay [3]. The IC50 was found to be 0.0957 nM in assay [6] and 0.0795 nM in assay [7].

B4: VGFB54 (antibody, human IgG1, lambda, L234A L235A, V domains shown)
VH: EVQLLESGGGSVQPGGSLRLSCTASGFNFEDYGMNWVRQAPGKGLDWVSSINRNGDISTYHVDSVKGRFTISRDNSKNTLYLQMNSLRAEDTAIYYCTKNHDYHGMDVWGQGTTVTVSS
VL: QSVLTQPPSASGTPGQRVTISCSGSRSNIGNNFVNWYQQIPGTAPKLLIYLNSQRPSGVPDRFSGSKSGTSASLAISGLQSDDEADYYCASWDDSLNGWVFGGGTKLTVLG
notes: human IgG1 (L234A/L235A/D265S), lambda, 2H:2L; from OmniChicken
Regarding B4, the EC50 in assay [1] turned out to be 0.101 nM. The “Geomean over-expressing/Geomean parental (Fold Signal/Background)” value in assay [2] was found to be 4.4 fold; in assay [3] it was 0.97 fold. For the same molecule, the IC50 in assay [4] came to 0.159 nM; in assay [5], 0.141 nM; in assay [6], 0.0876 nM; in assay [7], 0.0727 nM. Moreover, the “Max % Inh.” value in assay [4] was 100%; in assay [5] it was 99.9%.
